Values joined by “and” are separate entries in the source; they are usually repeats but may differ in a detail not shown here. Equal entries are not always repeated.
Columns and labels:
[1] = molecular target: feline CD80, surface expressed on feCD80/pSI transfected COS-7 cells (feline); test: competitive cell-cell adhesion assay at 5x10^5 cells; huCTLA-4Ig pre-incubated with CD80 COS-7 cells, then added to CD28 COS-7 monolayer
[2] = molecular target: feline CD28, surface expressed on CD28-pSI transfected COS-7 cells (feline); test: cell-cell adhesion assay; calcein-labelled CD80 COS-7 cells on CD28 COS-7 monolayer; microplate fluorimeter

| fold residual fluorescence against wells inhibited with soluble CD80 (close to the mock transfected control) [1] | fold fluorescence against wells with mock transfected adherent cells, at 1x10^6 cells [2] | Substance |
| --- | --- | --- |
| 2 fold and 3 fold |  | huCTLA-4Ig fusion protein (from UniProt P16410 38-161) (Fc fusion) |
|  | 5 fold | feline CD80, surface expressed on feCD80/pSI transfected COS-7 cells (ligand) |
